Test results reported in IntAct's records for PubMed 29892012.

B1: Ligand of Numb protein X 2 (Homo sapiens), Q8N448 (parent)
chain: MGTTSDEMVSVEQTSSSSLNPLCFECGQQHWTRENHLYNYQNEVDDDLVCHICLQPLLQPLDTPCGHTFCYKCLRNFLQEKDFCPLDRKRLHFKLCKKSSILVHKLLDKLLVLCPFSSVCKDVMQRCDLEAHLKNRCPGASHRRVALERRKTSRTQAEIENENGPTLLDPAGTLSPEADCLGTGAVPVERHLTSASLSTWSEEPGLDNPAFEESAGADTTQQPLSLPEGEITTIEIHRSNPYIQLGISIVGGNETPLINIVIQEVYRDGVIARDGRLLAGDQILQVNNYNISNVSHNYARAVLSQPCNTLHLTVLRERRFGNRAHNHSDSNSPREEIFQVALHKRDSGEQLGIKLVRRTDEPGVFILDLLEGGLAAQDGRLSSNDRVLAINGHDLKYGTPELAAQIIQASGERVNLTIARPGKPQPGNTIREAGNHSSSSQHHTPPPYYSRPSSHKDLTQCVTCQEKHITVKKEPHESLGMTVAGGRGSKSGELPIFVTSVPPHGCLARDGRIKRGDVLLNINGIDLTNLSHSEAVAMLKASAASPAVALKALEVQIVEEATQNAEEQPSTFSENEYDASWSPSWVMWLGLPSTLHSCHDIVLRRSYLGSWGFSIVGGYEENHTNQPFFIKTIVLGTPAYYDGRLKCGDMIVAVNGLSTVGMSHSALVPMLKEQRNKVTLTVICWPGSLV
partner: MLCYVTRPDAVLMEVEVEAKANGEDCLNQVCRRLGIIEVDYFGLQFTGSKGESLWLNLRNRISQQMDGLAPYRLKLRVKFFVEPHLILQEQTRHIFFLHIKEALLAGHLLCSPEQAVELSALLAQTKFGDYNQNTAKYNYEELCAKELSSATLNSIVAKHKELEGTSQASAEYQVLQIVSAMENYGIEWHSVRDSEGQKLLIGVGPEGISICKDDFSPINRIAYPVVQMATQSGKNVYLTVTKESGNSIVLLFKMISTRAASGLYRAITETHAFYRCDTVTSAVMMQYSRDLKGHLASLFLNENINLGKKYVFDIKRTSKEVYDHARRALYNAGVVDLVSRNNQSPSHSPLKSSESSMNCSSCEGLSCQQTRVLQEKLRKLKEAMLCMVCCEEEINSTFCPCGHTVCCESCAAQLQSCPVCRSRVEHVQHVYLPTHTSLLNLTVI
B2: Multifunctional procollagen lysine hydroxylase and glycosyltransferase LH3 (Homo sapiens), O60568 (parent)
chain: MTSSGPGPRFLLLLPLLLPPAASASDRPRGRDPVNPEKLLVITVATAETEGYLRFLRSAEFFNYTVRTLGLGEEWRGGDVARTVGGGQKVRWLKKEMEKYADREDMIIMFVDSYDVILAGSPTELLKKFVQSGSRLLFSAESFCWPEWGLAEQYPEVGTGKRFLNSGGFIGFATTIHQIVRQWKYKDDDDDQLFYTRLYLDPGLREKLSLNLDHKSRIFQNLNGALDEVVLKFDRNRVRIRNVAYDTLPIVVHGNGPTKLQLNYLGNYVPNGWTPEGGCGFCNQDRRTLPGGQPPPRVFLAVFVEQPTPFLPRFLQRLLLLDYPPDRVTLFLHNNEVFHEPHIADSWPQLQDHFSAVKLVGPEEALSPGEARDMAMDLCRQDPECEFYFSLDADAVLTNLQTLRILIEENRKVIAPMLSRHGKLWSNFWGALSPDEYYARSEDYVELVQRKRVGVWNVPYISQAYVIRGDTLRMELPQRDVFSGSDTDPDMAFCKSFRDKGIFLHLSNQHEFGRLLATSRYDTEHLHPDLWQIFDNPVDWKEQYIHENYSRALEGEGIVEQPCPDVYWFPLLSEQMCDELVAEMEHYGQWSGGRHEDSRLAGGYENVPTVDIHMKQVGYEDQWLQLLRTYVGPMTESLFPGYHTKARAVMNFVVRYRPDEQPSLRPHHDSSTFTLNVALNHKGLDYEGGGCRFLRYDCVISSPRKGWALLHPGRLTHYHEGLPTTWGTRYIMVSFVDP
partner: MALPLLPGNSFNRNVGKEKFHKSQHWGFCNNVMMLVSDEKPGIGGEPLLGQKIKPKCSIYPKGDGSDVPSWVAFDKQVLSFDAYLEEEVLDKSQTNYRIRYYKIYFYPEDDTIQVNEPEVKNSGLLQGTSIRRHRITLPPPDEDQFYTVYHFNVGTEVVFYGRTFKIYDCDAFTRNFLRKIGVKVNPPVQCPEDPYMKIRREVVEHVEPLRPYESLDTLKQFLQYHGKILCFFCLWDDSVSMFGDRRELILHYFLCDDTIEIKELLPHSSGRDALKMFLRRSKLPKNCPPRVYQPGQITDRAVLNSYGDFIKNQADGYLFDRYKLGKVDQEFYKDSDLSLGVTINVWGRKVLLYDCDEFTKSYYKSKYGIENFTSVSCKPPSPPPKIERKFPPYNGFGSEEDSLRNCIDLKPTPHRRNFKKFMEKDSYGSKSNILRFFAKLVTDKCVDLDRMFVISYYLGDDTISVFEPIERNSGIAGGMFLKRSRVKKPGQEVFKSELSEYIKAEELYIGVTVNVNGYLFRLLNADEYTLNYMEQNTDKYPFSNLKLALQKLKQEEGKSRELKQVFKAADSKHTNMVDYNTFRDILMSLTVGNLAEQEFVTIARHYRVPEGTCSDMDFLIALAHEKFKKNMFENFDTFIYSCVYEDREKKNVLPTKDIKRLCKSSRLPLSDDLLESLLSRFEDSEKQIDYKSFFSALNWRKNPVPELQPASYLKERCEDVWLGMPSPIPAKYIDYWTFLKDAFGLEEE
B3: Liprin-alpha-1 (Homo sapiens), Q13136 (parent)
chain: MMCEVMPTISEAEGPPGGGGGHGSGSPSQPDADSHFEQLMVSMLEERDRLLDTLRETQETLALTQGKLHEVGHERDSLQRQLNTALPQEFAALTKELNVCREQLLEREEEIAELKAERNNTRLLLEHLECLVSRHERSLRMTVVKRQAQSPAGVSSEVEVLKALKSLFEHHKALDEKVRERLRVALERCSLLEEELGATHKELMILKEQNNQKKTLTDGVLDINHEQENTPSTSGKRSSDGSLSHEEDLAKVIELQEIISKQSREQSQMKERLASLSSHVTELEEDLDTARKDLIKSEEMNTKLQRDVREAMAQKEDMEERITTLEKRYLAAQREATSVHDLNDKLENEIANKDSMHRQTEDKNRQLQERLELAEQKLQQTLRKAETLPEVEAELAQRVAALSKAEERHGNIEERLRQMEAQLEEKNQELQRARQREKMNEEHNKRLSDTVDKLLSESNERLQLHLKERMAALEDKNSLLREVESAKKQLEETQHDKDQLVLNIEALRAELDHMRLRGASLHHGRPHLGSVPDFRFPMADGHTDSYSTSAVLRRPQKGRLAALRDEPSKVQTLNEQDWERAQQASVLANVAQAFESDADVSDGEDDRDTLLSSVDLLSPSGQADAHTLAMMLQEQLDAINKEIRLIQEEKENTEQRAEEIESRVGSGSLDNLGRFRSMSSIPPYPASSLASSSPPGSGRSTPRRIPHSPAREVDRLGVMTLLPPSREEVRDDKTTIKCETSPPSSPRALRLDRLHKGALHTVSHEDIRDIRNSTGSQDGPVSNPSSSNSSQDSLHKAPKKKGIKSSIGRLFGKKEKGRPGQTGKEALGQAGVSETDNSSQDALGLSKLGGQAEKNRKLQKKHELLEEARRQGLPFAQWDGPTVVVWLELWVGMPAWYVAACRANVKSGAIMSALSDTEIQREIGISNPLHRLKLRLAIQEIMSLTSPSAPPTSRTTLAYGDMNHEWIGNEWLPSLGLPQYRSYFMECLVDARMLDHLTKKDLRGQLKMVDSFHRNSFQCGIMCLRRLNYDRKELERKREESQSEIKDVLVWSNDRVIRWILSIGLKEYANNLIESGVHGALLALDETFDFSALALLLQIPTQNTQARAVLEREFNNLLVMGTDRRFDEDDDKSFRRAPSWRKKFRPKDIRGLAAGSAETLPANFRVTSSMSSPSMQPKKMQMDGNVSGTQRLDSATVRTYSC
partner: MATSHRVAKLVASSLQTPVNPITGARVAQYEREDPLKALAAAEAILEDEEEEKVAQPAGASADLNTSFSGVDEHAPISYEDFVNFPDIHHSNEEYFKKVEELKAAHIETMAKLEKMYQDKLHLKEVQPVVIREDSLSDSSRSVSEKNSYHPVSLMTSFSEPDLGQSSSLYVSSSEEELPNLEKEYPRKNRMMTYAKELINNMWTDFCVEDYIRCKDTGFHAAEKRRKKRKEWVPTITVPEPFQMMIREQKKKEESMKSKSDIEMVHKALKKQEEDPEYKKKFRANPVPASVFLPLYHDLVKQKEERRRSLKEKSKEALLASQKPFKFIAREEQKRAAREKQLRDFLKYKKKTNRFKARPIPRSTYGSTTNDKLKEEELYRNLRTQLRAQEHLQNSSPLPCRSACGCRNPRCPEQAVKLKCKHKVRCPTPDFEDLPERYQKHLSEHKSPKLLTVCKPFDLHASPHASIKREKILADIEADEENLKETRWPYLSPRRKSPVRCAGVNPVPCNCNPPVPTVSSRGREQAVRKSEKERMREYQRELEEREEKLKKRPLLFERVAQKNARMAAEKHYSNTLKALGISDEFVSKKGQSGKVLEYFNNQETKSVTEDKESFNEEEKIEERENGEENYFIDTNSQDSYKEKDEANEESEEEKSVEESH

Variants of: B1
Details: with mylip_human MYLIP

| Variant | effect of a mutation on the interaction |
| --- | --- |
| P669A | with no effect |

Variants of: B2
Details: with efhc2_human EFHC2, Q5JST6

| Variant | effect of a mutation on the interaction |
| --- | --- |
| R235Q | with no effect |

Variants of: B3
Details: with FAM161A

| Variant | effect of a mutation on the interaction |
| --- | --- |
| L330F | disrupting interaction strength |

Variants of: B3
Details: with FAM161A
Remark: another data set of the same source

| Variant | effect of a mutation on the interaction |
| --- | --- |
| P389L | with no effect |
